Target: microtubules polymerised from bovine brain tubulin (bovine) (UniProt Q6B856)
Assay: TIRF microscopy of binding to immobilised microtubules

augmin octamer lacking the N-terminal MTBR of Haus8 (residues 1-154) (from UniProt Q0IHJ3;Q6DCY9) (complex)
reduction in MT binding against wildtype augmin: 50%

— PMC12578939
